B1: NF2 (merlin) isoform 7, human, full length (507 aa, lacks exons 2-3 = isoform-1 residues 39-121; exon-16 C-terminus), P35240-4 (parent)
chain: MAGAIASRMSFSSLKRKQPKTFTVRIVTMDAEMEFNCEVKKQILDEKIYCPPEASVLLASYAVQAKYGDYDPSVHKRGFLAQEELLPKRVINLYQMTPEMWEERITAWYAEHRGRARDEAEMEYLKIAQDLEMYGVNYFAIRNKKGTELLLGVDALGLHIYDPENRLTPKISFPWNEIRNISYSDKEFTIKPLDKKIDVFKFNSSKLRVNKLILQLCIGNHDLFMRRRKADSLEVQQMKAQAREEKARKQMERQRLAREKQMREEAERTRDELERRLLQMKEEATMANEALMRSEETADLLAEKAQITEEEAKLLAQKAAEAEQEMQRIKATAIRTEEEKRLMEQKVLEAEVLALKMAEESERRAKEADQLKQDLQEAREAERRAKQKLLEIATKPTYPPMNPIPAPLPPDIPSFNLIGDSLSFDFKDTDMKRLSMEIEKEKVEYMEKSKHLQEQLNELKTEIEALKLKERETALDILHNENSDRGGSSKHNTIKKPQAQGRRPICI

Variants of B1 are the subject of the assay. The experiment in a line: reverse yeast two-hybrid deep mutational scan (rY2H-seq): NF2 isoform 7 mutant library as bait mated with wild-type prey strains; selection on medium lacking adenine for non-interacting pairs; NextSeq paired-end sequencing; enrichment vs …. The conditions noted are these: yeast diploids after mating (RBait_S3 x RPrey_S3), 30 °C, selection for reporter genes on NB agar, HIGHER = WEAKER BINDING (the opposite of display enrichments): higher = stronger loss of interaction: reverse Y2H selects yeast in which bait and prey do NOT interact (growth without adenine), so a …, hits-only table, scale: rY2H score, numbering: uniprot, sequence starts at 1.

Where [1] appears, read: with EMILIN1 (elastin microfibril interfacer 1), Q9Y6C2, human ABL2 co-expressed as the kinase-dead K35M mutant ….
The mark [2] stands for this setting: with EMILIN1 (elastin microfibril interfacer 1), Q9Y6C2, human tyrosine kinase ABL2 co-expressed as the active kinase ….
Where [3] appears, read: with KDM1A (lysine-specific histone demethylase 1A; the table's label AOF2 is a gene synonym of KDM1A), O60341, human ABL2 co-expressed as the kinase-dead K35M mutant ….
Setting [4] is: with PIK3R3 (phosphatidylinositol 3-kinase regulatory subunit gamma), Q92569, human tyrosine kinase ABL2 co-expressed as the active kinase ….
Where [5] appears, read: with KDM1A (lysine-specific histone demethylase 1A; the table's label AOF2 is a gene synonym of KDM1A), O60341, human tyrosine kinase ABL2 co-expressed as the active kinase ….
Setting [6] is: with NF2 C-terminal domain (wild type; homomeric NF2-NF2 interaction), P35240, human ABL2 co-expressed as the kinase-dead K35M mutant …, partner unresolved.

The record followed here is PMC10244618.

Several values for one entry are separate records, joined by “and”; a condition that tells them apart may be missing. Equal values may be shown once.

With A320L, the enrichment runs as follows: under setting [1], 2.52; under setting [2], 3.39; under setting [3], 4.56 and 4.18.

As to M280E, the enrichment under setting [1] stood at 2.68.

Consider A316S, for which the enrichment under setting [1] was 3.61.

Regarding E344K, the enrichment is, setting by setting: under setting [1], 1.78 and 4.12; under setting [2], 3.82 and 2.77; under setting [3], 1.57; under setting [4], 4.06.

In the case of E344G, the enrichment by setting is: under setting [1], 6.34 and 11.1; under setting [3], 10.3.

Regarding E344L, the enrichment was 4.18 and 2.17 under setting [1]; 2.34 and 1.8 under setting [2]; 2.31 under setting [5].

As for M326E, the enrichment under setting [1] worked out at 4.89; the enrichment under setting [2] came out at 3.65; the enrichment under setting [3] came out at 6.72; the enrichment under setting [5] turned out to be 1.86; the enrichment under setting [6] came to 1.94.

Turning to L348E, the enrichment worked out at 2.15 under setting [1], 2.19 under setting [2] and 1.71 under setting [6].

With L348S, the enrichment under setting [1] is 3.01, the enrichment under setting [2] stood at 3.29 and the enrichment under setting [3] was 4.93.

Take A333L: the enrichment by setting is: under setting [1], 2.47; under setting [3], 1.58; under setting [5], 1.46.

Consider A333T, for which, under setting [1], the enrichment turned out to be 2.19.

For A333K, the enrichment reads like this: under setting [1], 1.75; under setting [2], 5.66; under setting [3], 4.26 and 3.03.

As to M292S, the enrichment reads like this: under setting [1], 1.52; under setting [3], 1.74; under setting [6], 1.49; under setting [4], 1.46.

Turning to M292A, under setting [1], the enrichment was found to be 6.8.

For the variant R328A, the enrichment by setting is: under setting [1], 2.29; under setting [3], 1.66.

For the variant R328E, the enrichment was determined as 2.55 under setting [1] and 3.12 under setting [4].

For K313A, the enrichment under setting [1] turned out to be 2.05, the enrichment under setting [3] was determined as 1.63, the enrichment under setting [5] is 3.82 and the enrichment under setting [4] came to 3.82.

With E349T, the enrichment is 2.72 and 2.96 under setting [1]; 3.96 and 3.74 under setting [2]; 3.54 and 3.02 under setting [3]; 2.75 under setting [5].

For R293A, the enrichment is, setting by setting: under setting [1], 1.56; under setting [2], 4.55 and 5.13; under setting [3], 2.38; under setting [5], 6.57; under setting [6], 1.81; under setting [4], 10.8 and 3.63.

As to R293E, the enrichment reads like this: under setting [1], 2.19; under setting [2], 2.64.

Turning to E323K, the enrichment under setting [1] is 1.53, the enrichment under setting [2] turned out to be 1.69 and the enrichment under setting [4] is 4.79.

For Q327K, the enrichment under setting [1] amounted to 1.55.

As for Q327Y, the enrichment under setting [1] came to 2.5.

Take K318L: the enrichment reads like this: under setting [1], 2.66; under setting [2], 1.75.

With K318E, the enrichment turned out to be 3.15 under setting [1] and 1.81 under setting [5].

Regarding K318T, the enrichment is, setting by setting: under setting [1], 1.91; under setting [5], 1.54.

Take L342K: the enrichment reads like this: under setting [1], 1.65 and 3.1; under setting [2], 2.14 and 6.11; under setting [3], 6.76 and 4.54; under setting [5], 1.63.

With L342E, the enrichment reads like this: under setting [1], 3.3 and 9.12; under setting [2], 3.94; under setting [3], 4.91; under setting [6], 1.9.

As for L342A, the enrichment stood at 2.66 under setting [1], 3.99 under setting [2] and 2.28 under setting [3].

As to E296L, under setting [1], the enrichment came to 2.9.

E265K: the enrichment under setting [1] worked out at 4.95.

Consider E265L, for which the enrichment is, setting by setting: under setting [1], 3.19; under setting [2], 3.78; under setting [3], 7.66; under setting [5], 4.47.

On to E311A, for which, under setting [1], the enrichment came out at 1.44.

As for T297A, the enrichment by setting is: under setting [1], 2.57; under setting [5], 2.94.

With R341K, the enrichment reads like this: under setting [1], 2.64; under setting [2], 3.2; under setting [3], 7.07.

On to R341E, for which the enrichment runs as follows: under setting [1], 3.61; under setting [6], 2.88; under setting [4], 6.39.

As for R341L, the enrichment is 2.12 and 2.16 under setting [1]; 4.47 and 2.73 under setting [3]; 1.59 under setting [6].

Turning to R263T, the enrichment under setting [1] stood at 1.89.

Take R270L: the enrichment runs as follows: under setting [1], 1.78; under setting [2], 6.66; under setting [6], 2.39.

For the variant V347E, the enrichment is 2.33 and 1.87 under setting [1]; 3.23 under setting [3]; 2.41 under setting [6].

Turning to A331L, the enrichment reads like this: under setting [1], 2.6 and 2.58; under setting [2], 3.27; under setting [3], 4.61 and 1.64; under setting [5], 5.02.

Regarding R335A, the enrichment reads like this: under setting [1], 35.1; under setting [2], 43.3; under setting [3], 67.9 and 31.8.

For R335K, the enrichment by setting is: under setting [1], 3.27; under setting [2], 2.33; under setting [3], 4.54 and 2.35; under setting [5], 3.19.

Take Q317E: the enrichment runs as follows: under setting [1], 1.79; under setting [6], 4.2.

In the case of Q345T, the enrichment came to 23.4 under setting [1], 13.4 under setting [2], 21.7 under setting [3] and 6.27 under setting [5].

As for K330E, the enrichment was 2.8 and 1.9 under setting [1]; 1.83 under setting [2]; 4.14 and 1.58 under setting [3].

Consider L291P, for which, under setting [1], the enrichment came out at 1.99.

Turning to E325L, the enrichment reads like this: under setting [1], 2.13; under setting [3], 5.66; under setting [6], 3.02.

As to R268K, under setting [1], the enrichment came to 3.47.

In the case of R268P, under setting [1], the enrichment was 1.95.
